Measured values: patent US7910544B2, “Conformationally constrained parthyroid hormone (PTH) analogs” (The General Hospital Corporation, priority 2003, dated 2011)
pEC50: −log10 of the molar value. Non-standard residues stand in square brackets, D forms with d. No end group written: not given here. Bpa = N[C@@H](Cc1ccc(C(=O)c2ccccc2)cc1)C(=O)O; hArg = N=C(N)NCCCC[C@H](N)C(=O)O; Nle = CCCC[C@H](N)C(=O)O; Deg = CCC(N)(CC)C(=O)O

Assays:
[1] = molecular target: T1, P1R-delNt (Homo sapiens, UniProt Q03431); experiment: Competitive antagonism on P1R-delNt (shift of agonist dose-response curve, cAMP); assay type: cell-based; conditions: for shift of agonist dose-response curve: agonist [Aib1,3,Tyr34]hPTH(1-34)NH2, antagonist 1×10−5 M, COS-7/P1R-delNt; for mechanism of inhibition: from shift of [Aib1,3,Tyr34]hPTH(1-34)NH2 dose-response curve
T1 construct: expressed in transfected cells; host or cells: COS-7
T1 sequence (Q03431 with tags, fused parts or gaps limits assumed): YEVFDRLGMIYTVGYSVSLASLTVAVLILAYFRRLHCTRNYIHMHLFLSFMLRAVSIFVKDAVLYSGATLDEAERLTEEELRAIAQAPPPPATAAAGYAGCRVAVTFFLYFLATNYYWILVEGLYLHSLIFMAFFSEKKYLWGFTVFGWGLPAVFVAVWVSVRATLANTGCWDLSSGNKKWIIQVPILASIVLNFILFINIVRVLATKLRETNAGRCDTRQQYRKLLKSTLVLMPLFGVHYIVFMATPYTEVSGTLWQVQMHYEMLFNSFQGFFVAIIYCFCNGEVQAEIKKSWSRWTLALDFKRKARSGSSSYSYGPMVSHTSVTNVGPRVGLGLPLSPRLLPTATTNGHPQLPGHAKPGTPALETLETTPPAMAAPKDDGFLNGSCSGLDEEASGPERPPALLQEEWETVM
Description: FIG. 10. Competitive Antagonism on P1R-delNt. COS-7 cells transfected with P1R-delNt were stimulated with varying concentrations of the agonist [Aib^1,3,Tyr^34]hPTH(1-34)NH2 ([Aib^1,3]PTH(1-34)), either in the absence of antagonist or in the presence of an antagonist, [Deg^1,3,Bpa2,M]PTH(1-14) or [Deg^1,3,Bpa^2,M]PTH(1-21) each at 1×10−5 M, as indicated in the figure key.
(§1) Cell Culture. The cell line HKRK-B28 (Shimizu, el al., Biochem. 41: 13224-33 (2002)) was derived from the porcine kidney cell line, LLC-PK1 by stable transfection with plasmid DNA encoding the opossum/rat hybrid P1R and expresses ˜280,000 receptors per cell. The HKRK-B7 cell line was derived from the LLC-PK1 cell line by stable transfection with DNA encoding human P1R. HKRK-B7 cells expresses approximately 950,000 human P1R per cell (Takasu, H., et al., J. Bone Miner. Res. 14: 11-20 (1999)). These cells, as well as COS-7 cells and SaOS-2-B10 cells, are cultured at […] in T-75 flasks ([…]) in Dulbecco's modified Eagle's medium (DMEM) supplemented with fetal bovine serum (10%), penicillin G (20 units/ml), streptomycin sulfate (20 μg/ml) and amphotericin B (0.05 μg/ml) in a humidified atmosphere containing 5% Co2. Stock solutions of EGTA/trypsin and antibiotics are from GIBCO; fetal bovine serum is from Hyclone Laboratories (Logan, Utah). COS-7 cells sub-cultured in 24-well plates are transfected with plasmid DNA (200 ng per well) encoding the wild-type human P1R or truncated human P1R deleted for residues (24-181) (Shimizu, M., et al., J. Biol. Chem. 275: 21836-21843 (2000)) that is purified by cesium chloride/ethidium bromide density gradient centrifugation, and FuGENE 6 transfection reagent (Roche Indianapolis Ind.) according to the manufacturer's recommended procedure. All cells, in 24-well plates, are treated with fresh media and shifted to 33° C. for 12 to 24 h prior to assay.
(§2) cAMP Stimulation. Stimulation of cells with peptide analogs is performed in 24-well plates. Cells are rinsed with 0.5 mL of binding buffer (50 mM Tris-HCl, 100 mM NaCl, 5 mM KCl, 2 mM CaCl2, 5% heat-inactivated horse serum, 0.5% fetal bovine serum, adjusted to pH 7.5 with HCl) and treated with 200 μL of cAMP assay buffer (Delbecco's modified Eagle's medium containing 2 mM 3-isobutyl-1-methylxanthine, 1 mg/mL bovine serum albumin, 35 mM Hepes-NaOH, pH 7.4) and 100 μL of binding buffer containing varying amounts of peptide analog (final volume=300 μL). The medium is removed after incubation for 30 to 60 minutes at room temperature, and the cells are frozen on dry ice, lysed with 0.5 mL 50 mM HCl, and refrozen ([…]). The cAMP content of the diluted lysate is determined by radioimmunoassay. The EC50 response values are calculated using nonlinear regression (see below).
The pharmacologic mechanism by which [Deg^1,3,BPA^2,Nle^8,Gln^10,Har^11,Ala^12,Trp^14,Arg^19,Tyr^21]PTH(1-21)NH2 and [Deg^1,3,Bpa^2,Gln^10,Har^11,Ala^12,Trp^14]PTH(1-14)NH2 function as antagonists was investigated in FIG. 10. In this study, the effects of the antagonists at […], on the dose-response curve elicited by the agonist [Aib^1,3,Tyr^34]hPTH(1-34)NH2 were examined in […].

[2] = molecular target: T1, P1R-delNt; experiment: cAMP antagonism assay in COS-7 cells transfected with P1R-delNt; assay type: cell-based; conditions: for N versus J domain selectivity of P1R antagonist: concluded from cAMP antagonism on wild-type P1R and P1R-delNt in COS-7 cells; for antagonism of agonist-induced cAMP response: P1R-delNt, antagonist 1×10−5 M
Experimental: (§3) FIG. 8. “N” versus “J” Domain selectivity of P1R Antagonists in COS-7 Cells. cAMP antagonism assays were performed in COS-7 cells transfect with the wild-type P1R (A), or a P1R derivative (P1R-delNt) having most (residues 24-181) of the P1R N domain deleted (B). Cells were treated with the agonist [Aib^1,3,Tyr^34]hpTH(1-34)NH2 ([Aib^1,3]PTH(1-34)), which utilizes both N and J domains for affinity/potency, or with [Ac5c^1, Aib^3, Gln^10,Har^11,Ala^12,Trp^14]PTH(1-14)NH2 ([Ac5c^1]PTH(1-14)), which uses only the J domain for affinity/potency, at the concentrations indicated in the key, so as to elicit half-maximum cAMP responses in the absence of antagonist (none). The analogs PTHrP(5-36) and Deg^1,3,Bpa^2-PTH(1-21) were added at 1×10−5 M, as indicated.
as §1, §2
“N” versus “J” domain selectivity of P1R antagonists was investigated in COS-7 Cells (FIG. 8). cAMP antagonism assays were performed in COS-7 cells transfect with the wild-type P1R (A), or a P1R derivative (P1R-delNt) having most (residues 24-181) of the P1R N domain deleted (B). Cells were treated with the agonist [Aib^1,3,Tyr^34]hPTH(1-34)NH2 ([Aib^1,3]PTH(1-34)), which utilizes both N and J domains for affinity/potency, or with [Ac5c^1,Aib^3,Gln^10,Har^11,Ala^12,Trp^14]PTH(1-14)NH2 ([Ac5c^1]PTH(1-14)), which uses only the J domain for affinity/potency, at the concentrations indicated in the key, so as to elicit half-maximum cAMP responses in the absence of antagonist (none). The analogs PTHrP(5-36) and Deg^1,3,Bpa^2-PTH(1-21) were added at 1×10−5 M, as indicated.

[3] = molecular target: T2, wild-type P1R (Homo sapiens, UniProt Q03431); experiment: cAMP antagonism assay in COS-7 cells transfected with wild-type P1R; assay type: cell-based; conditions: WT receptor; agonist [Ac5c1,Aib3,Gln10,Har11,Ala12,Trp14]PTH(1-14)NH2; antagonist 1×10−5 M; listed as Deg^1,3,Bpa^2-PTH(1-21)
T2 construct: expressed in transfected cells; host or cells: COS-7
T2 sequence (Q03431 27-593): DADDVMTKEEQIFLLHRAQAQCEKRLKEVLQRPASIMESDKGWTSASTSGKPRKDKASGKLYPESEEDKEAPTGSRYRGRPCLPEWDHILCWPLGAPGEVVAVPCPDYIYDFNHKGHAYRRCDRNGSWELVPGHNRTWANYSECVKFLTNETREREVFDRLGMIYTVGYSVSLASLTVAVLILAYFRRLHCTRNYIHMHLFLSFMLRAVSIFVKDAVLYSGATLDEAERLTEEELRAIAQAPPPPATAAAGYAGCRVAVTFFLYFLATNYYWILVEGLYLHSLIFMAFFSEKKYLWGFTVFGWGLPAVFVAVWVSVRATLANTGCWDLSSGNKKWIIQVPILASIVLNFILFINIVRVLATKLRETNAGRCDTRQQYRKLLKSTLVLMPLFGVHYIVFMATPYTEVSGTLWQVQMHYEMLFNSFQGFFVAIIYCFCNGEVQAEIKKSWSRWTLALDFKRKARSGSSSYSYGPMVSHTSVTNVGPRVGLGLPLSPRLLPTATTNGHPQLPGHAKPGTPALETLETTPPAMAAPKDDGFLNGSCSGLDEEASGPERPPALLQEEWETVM
Experimental: as §3
Cell Culture. The cell line HKRK-B28 (Shimizu, el al., Biochem. 41: 13224-33 (2002)) was derived from the porcine kidney cell line, LLC-PK1 by stable transfection with plasmid DNA encoding the opossum/rat hybrid P1R and expresses ˜280,000 receptors per cell. The HKRK-B7 cell line was derived from the LLC-PK1 cell line by stable transfection with DNA encoding human P1R. […]
cAMP Stimulation. […] The cAMP content of the diluted lysate is determined by radioimmunoassay. The EC50 response values are calculated using nonlinear regression (see below). […]

[4] = molecular target: T3, P1R (Homo sapiens, UniProt Q03431); conditions: literature (Luck et al. 1999); read-out: cAMP-signaling potency EC50; cited from earlier work
T3 sequence (Q03431 27-593): T2 sequence (Q03431 27-593)

| Substance | shift of agonist dose-response curve [1] | shift of agonist dose-response curve ([1]; listed as [Deg^1,3,Bpa2,M]PTH(1-14)) | mechanism of inhibition [1] | N versus J domain selectivity of P1R antagonist [2] | shift of agonist dose-response curve ([1]; listed as [Deg^1,3,Bpa^2,M]PTH(1-21)) | antagonism of agonist-induced cAMP response [3] | antagonism of agonist-induced cAMP response ([2]; agonist [Ac5c1,Aib3,Gln10,Har11,Ala12,Trp14]PTH(1-14)NH2) | antagonism of agonist-induced cAMP response ([2]; agonist [Ac5c1,Aib3,Gln10,Har11,Ala12,Trp14]PTH(1-14)NH2, listed as Deg^1,3,Bpa^2-PTH(1-21)) | antagonism of agonist-induced cAMP response ([2]; agonist [Aib1,3,Tyr34]hPTH(1-34)NH2) | antagonism of agonist-induced cAMP response ([2]; agonist [Aib1,3,Tyr34]hPTH(1-34)NH2, listed as Deg^1,3,Bpa^2-PTH(1-21)) | N versus J domain selectivity of P1R antagonist ([2]; listed as Deg^1,3,Bpa^2-PTH(1-21)) | pEC50 [4] |
| --- | --- | --- | --- | --- | --- | --- | --- | --- | --- | --- | --- | --- |
| DegBpaDegGluIleGlnLeuMetHisGlnHarAlaLysTrpNH2 ([Deg][Bpa][Deg]EIQLMHQ[hArg]AKW-NH2; N-terminus assumed; SMILES CC[C@H](C)[C@H](NC(=O)[C@H](CCC(=O)O)NC(=O)C(CC)(CC)NC(=O)[C@H](Cc1ccc(C(=O)c2ccccc2)cc1)NC(=O)C(N)(CC)CC)C(=O)N[C@@H](CCC(N)=O)C(=O)N[C@@H](CC(C)C)C(=O)N[C@@H](CCSC)C(=O)N[C@@H](Cc1c[nH]cn1)C(=O)N[C@@H](CCC(N)=O)C(=O)N[C@@H](CCCCNC(=N)N)C(=O)N[C@@H](C)C(=O)N[C@@H](CCCCN)C(=O)N[C@@H](Cc1c[nH]c2ccccc12)C(N)=O) | rightward and parallel shift in the agonist response curve | parallel, right-ward shift in the agonist dose-response curve | competitive | behaved similarly in these assays to Deg^1,3,Bpa^2-PTH(1-21) |  |  |  |  |  |  |  |  |
| DegBpaDegGluIleGlnLeuNleHisGlnHarAlaLysTrpLeuAlaSerValArgArgTyrNH2 ([Deg][Bpa][Deg]EIQL[Nle]HQ[hArg]AKWLASVRRY-NH2; N-terminus assumed; SMILES CCCC[C@H](NC(=O)[C@H](CC(C)C)NC(=O)[C@H](CCC(N)=O)NC(=O)[C@@H](NC(=O)[C@H](CCC(=O)O)NC(=O)C(CC)(CC)NC(=O)[C@H](Cc1ccc(C(=O)c2ccccc2)cc1)NC(=O)C(N)(CC)CC)[C@@H](C)CC)C(=O)N[C@@H](Cc1c[nH]cn1)C(=O)N[C@@H](CCC(N)=O)C(=O)N[C@@H](CCCCNC(=N)N)C(=O)N[C@@H](C)C(=O)N[C@@H](CCCCN)C(=O)N[C@@H](Cc1c[nH]c2ccccc12)C(=O)N[C@@H](CC(C)C)C(=O)N[C@@H](C)C(=O)N[C@@H](CO)C(=O)N[C@H](C(=O)N[C@@H](CCCNC(=N)N)C(=O)N[C@@H](CCCNC(=N)N)C(=O)N[C@@H](Cc1ccc(O)cc1)C(N)=O)C(C)C) | rightward and parallel shift in the agonist response curve |  | competitive | potent J-domain selective antagonist | parallel, right-ward shift in the agonist dose-response curve | antagonizes PTH(1- 14), more effectively than does PTHrP(5-36) | strongly inhibited | antagonizes either agonist | strongly inhibited | antagonizes either agonist | J domain-selective antagonist |  |
| PTH(1-34): first 34 amino acids of parathyroid hormone |  |  |  |  |  |  |  |  |  |  |  | ~8.70 |
